Source: publication PMC7336453, “Inhibition of multiple defense responsive pathways by CaWRKY70 transcription factor promotes susceptibility in chickpea under Fusarium oxysporum stress condition”

T1: His6-CaWRKY40 (Cicer arietinum, UniProt A0A1S2YMJ3 1-315)
T1 sequence: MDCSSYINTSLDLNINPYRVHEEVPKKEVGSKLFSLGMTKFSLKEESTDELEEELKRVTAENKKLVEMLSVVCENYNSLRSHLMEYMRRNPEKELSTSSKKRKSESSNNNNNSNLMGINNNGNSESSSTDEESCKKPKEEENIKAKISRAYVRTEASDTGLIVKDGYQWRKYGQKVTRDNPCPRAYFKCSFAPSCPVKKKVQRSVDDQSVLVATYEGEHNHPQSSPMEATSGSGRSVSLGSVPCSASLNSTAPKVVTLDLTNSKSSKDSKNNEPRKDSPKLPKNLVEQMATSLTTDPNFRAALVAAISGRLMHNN


Experiments:
His6-CaWRKY40 [1] = molecular target: T1, His6-CaWRKY40; assay: EMSA; 200 ng protein; competed by 50 molar excess cold probe; 20 mM HEPES pH 7.5, 100 mM KCl, 0.2 mM EDTA, 1 mM DTT, 2 mM MgCl2, 1 ug poly dI-dC; 10 ng probe, 100-200 ng protein; 30 min room temperature; 5% PAGE 0.5x TBE at 4 C; conditions: protein: recombinant; tags: 6xHis (pET28a); label: labelled (32P)
His6-CaWRKY40 [2] = molecular target: T1, His6-CaWRKY40; assay: EMSA; 200 ng protein; competed by 20 molar excess cold probe; 20 mM HEPES pH 7.5, 100 mM KCl, 0.2 mM EDTA, 1 mM DTT, 2 mM MgCl2, 1 ug poly dI-dC; 10 ng probe, 100-200 ng protein; 30 min room temperature; 5% PAGE 0.5x TBE at 4 C; conditions: protein: recombinant; tags: 6xHis (pET28a); label: labelled (32P)

Binder | binding result (His6-CaWRKY40 [1]) | binding result (His6-CaWRKY40 [2])
pCaMPK9 W-box 2 (dsDNA) DNA 1: TTAAAATTATTTGTCATCTAAAAGAATCA DNA 2: TGATTCTTTTAGATGACAAATAATTTTAA | binds | –
pCaMPK9 W-box 1 (dsDNA) DNA 1: ATTGGTTCAGTTTTGTAGTCAACAAAATCT DNA 2: AGATTTTGTTGACTACAAAACTGAACCAAT | – | binds
